Laboratory results as given in patent US20210145921A1, “COMPOSITION COMPRISING VEGF ANTAGONISTS AND A CATIONIC PEPTIDE AND USES THEREOF” (UCL BUSINESS LTD, priority 2017, published 2021).

Key:
[1] = test system: HCE-S corneal epithelial barrier; test: in vitro HCE-S transwell transcytosis assay (Papp); type: in vitro ADME, human; settings: for enhancement of delivery of Lucentis across the HCE-S barrier: Papp
Description: HCE-S barrier models for transcytosis assays were prepared using an adaptation of a previously described method.^[1] HCE-S cells (5×10^4 cells/well) were seeded on transwell inserts (poly-carbonate, 3 μm pore size, 1.13 cm^2) and maintained for 7 days refreshing the medium in the apical and basal chambers every second day. After this time cells were cultured for a further 10 days at an apical air interface to encourage development of a multilayer barrier. Prior to each experiment culture medium was replaced with phenol red free DMEM and barrier integrity measured via transepithelial resistance (TER). TER values were obtained in the range 300-600 Ωcm^2 and only epithelial barriers with TERs>300 Ω·cm^2, the accepted threshold for tight epithelial barriers, were used for transcytosis experiments.
Permeation studies were conducted to determine the rate of anti-VEGF transcytosis in the presence/absence of varying concentrations of R8. Experiments were initiated by adding 1.5 ml serum- and phenol red-free DMEM to the basal chamber and 0.5 ml to the apical chamber containing 0.1 mg/mL Avastin or Lucentis in the presence of varying molar ratios of R8. After 3 h, 100 μl of medium was withdrawn from the basal chamber and the concentration of anti-VEGF in the basal chamber was determined using established and commercially available sandwich ELISA techniques (KPL Protein Detector HRP Microwell Kit, Anti-Human Cat #54-62-10 with Jackson Immuno Research AffiniPure Rabbit Anti-Human IgG capture antibody).^[1] […] The permeability coefficient (Papp) of each anti-VEGF was determined as previously described^[1] using equation 1;
where CR is the final concentration of anti-VEGF recovered from the ELISA assay, CD is the initial concentration of anti-VEGFs added to the assay, tmin is the transcytosis time (180 min), VR is the volume of the receiving chamber (1.5 ml) and A represents the filter area (1.12 cm^2).
Lucentis (+/−Steryl-R8) were applied to the Apical chamber and the concentration crossing the barrier was determined from the basolateral chamber at different timepoints using a Lucentis sandwich ELISA. Intact HCE-S barrier was confirmed by measuring transepithelial resistance (>[…]) before each assay.

[2] = dextran transcytosis assay; type: in vitro ADME
Description: The fifth experiment conducted was whether R8 affected the transport of dextrans across a membrane, FIG. 27. Dextrans are complex branched polysaccharides made of many glucose molecules. They can be composed of chains of varying lengths.

HCE-S cells = test: AlamarBlue cell viability assay; type: cell-based, human; settings: 24 h exposure, up to 200/1 molar ratio
Description: HCE-S monolayers for uptake assays were prepared by seeding 96 well plates with 1×10^4 cells/well and maintaining for 5 days replacing the medium every other day. After this time, medium was replaced with that containing 100 μM calcein loaded PLVs in the presence or absence of 200 nM AnxA5. Cells were incubated with PLVs at 37° C. for 3 h protected from light. Epithelial monolayers were then washed three times in ice cold PBS (with calcium and magnesium) to remove free PLVs, followed by a single wash in ice cold isosmotic citrate buffer (pH 3) to remove surface bound PLVs before applying a PBS wash containing 1% Triton X-100 to solubilise membranes. Upon completion of each washing step, calcein fluorescence was measured using a 485 nm excitation and 515 nm emission with a SAFIRE micro plate reader (TECAN) HCE-S monolayers for viability assays were prepared by seeding 96 well plates with 1×10^4 cells/well and maintaining for 24 h at 37° C. in a humidified incubator with 5% CO2. […] Cells were incubated with anti-VEGF/R8 solutions for 24 h before viability of HCE-S cells in response to was assessed using the AlamarBlue (Invitrogen) cell viability assay according to manufacturers instructions. […]

[3] = in vivo rabbit study, topical instillation, anti-VEGF in eye tissue by sandwich ELISA; parameters: species or system New Zealand rabbits
Description: All animal experiments were performed in compliance with the ARVO Statement for the Use of Animals in Ophthalmic and Vision Research. New Zealand rabbits received unilateral topical instillations of 0.03 mL anti-VEGF in the presence of R8 (varying molar concentrations) either as a liquid or hydrogel formulations without anaesthesia. At the specified time after application animals were euthanized before enucleation, washing (PBS) and snap-freezing and dissection of ocular tissues. Samples were weighed and cryohomogenised before the concentration of anti-VEGF per gram of eye tissue determined using established sandwich ELISA protocols.

[4] = human, in vivo; cited from earlier work
[5] = in vivo; cited from earlier work
[6] = test system: human umbilical vein endothelial cell (HUVEC); settings: cited from earlier work
rhVEGF165 = settings: read-out: IC50, tissue factor up-regulation; cited from earlier work

Q: Which “transcytosis of Lucentis, peptide alone without liposomes” value [1] does the source give for N=C(N)NCCC[C@H](NC(=O)[C@H](CCCNC(=N)N)NC(=O)[C@H](CCCNC(=N)N)NC(=O)[C@H](CCCNC(=N)N)NC(=O)[C@H](CCCNC(=N)N)NC(=O)[C@H](CCCNC(=N)N)NC(=O)[C@H](CCCNC(=N)N)NC(=O)[C@@H](N)CCCNC(=N)N)C(=O)O [R8, RRRRRRRR] here?
A: dramatic enhancement in transcytosis

Q: What about the “enhancement of delivery of Lucentis across the HCE-S barrier” value [1] of the same compound?
A: concentration dependent manner

Q: And the “effect on transport of different sizes of dextran across a membrane” value [2]?
A: made no difference

Q: What about the “toxicity to HCE-S cells” value (HCE-S cells) of the same compound?
A: non-toxic

Q: For CCCCCCCCCCCCCCCCCC(=O)N[C@@H](CCCNC(=N)N)C(=O)N[C@@H](CCCNC(=N)N)C(=O)N[C@@H](CCCNC(=N)N)C(=O)N[C@@H](CCCNC(=N)N)C(=O)N[C@@H](CCCNC(=N)N)C(=O)N[C@@H](CCCNC(=N)N)C(=O)N[C@@H](CCCNC(=N)N)C(=O)N[C@@H](CCCNC(=N)N)C(=O)O [ST-R8, Stearyl-R8], which “transcytosis of anti-VEGF (Lucentis) loaded liposomes” value [1] is on record?
A: significantly enhanced

Q: What about the “enhancement of delivery of Lucentis across the HCE-S barrier” value [1] of the same compound?
A: concentration dependent manner

Q: With Bevacizumab [Avastin] as the compound, how does the “transport across the HCE-S barrier in the presence of R8 (ST-R8)” value [1] read?
A: aided the transport

Q: For Ranibizumab [Lucentis], which “free Lucentis detected in retina” value ([3]; 2 h after topical instillation) is on record?
A: ~20 ng

Q: What about the “concentration detected in plasma” value ([3]; free Lucentis, topical instillation, 2 h) of the same compound?
A: < 0.1 ng/mL

Q: What about the “proportion of dosed free Lucentis reaching the retina by the topical route” value ([3]; from dosed eye versus co-eye concentration, n=10) of the same compound?
A: ~30%

Q: What about the “Lucentis delivery to the retina” value ([3]; liquid formulation, 2 h, n=3) of the same compound?
A: 18 ± 8 ng/g

Q: And the “levels of Lucentis in the vitreous and retina/choroid” value ([3]; rabbit, one eye dosed, 2 hours after topical application)?
A: 10 ng/g tissue

Q: And the “clinical Cmax predicted at steady state” value [4]?
A: 1.7 ng/mL

Q: What about the “clinical Cmax, maximal individual level” value [4] of the same compound?
A: 2.4 ng/mL

Q: And the “half-life in the eye” value [5]?
A: 7.19 days

Q: What about the “transport across the HCE-S barrier in the presence of R8 (ST-R8)” value [1] of the same compound?
A: aided the transport

Q: What about the “concentration giving total inhibition of proliferation” value [6] of the same compound?
A: ≥ 1.3 nM

Q: And the IC50 ([6]; read-out: IC50, VEGF-induced proliferation)?
A: < 1 nM

Q: And the IC50 (rhVEGF165)?
A: 0.31 nM
